Source: the domain aggregation screens of Martell et al. (2025)

Assay: soluble fraction after stress (log2 fold change); higher = more stays soluble; pooled small domains, quantitative proteomics
Conditions: stress: 75 degC
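Further: 20 min heating vs room temperature control held 20 min.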

| Sequence | soluble fraction (log2) |
| --- | --- |
| HMPELFLFNPDTASAATFQALGFSARQAGVLIHFREALGGRFGSVEQFSKSYVVDSATLERLRPYMVF | -4.13 |
| HMPEMHIYTKEGKIHITHIDENEEIKIYNPLGQIIYTGSPQDIPVLEGKGLYIIYIGKSAVEVLES | -2.2 |
| HMPENESPEEKHARFRRFAEGLMARLDENESVRDILPELKVWLDDRELDRDDQRLARNLMLTAGKRE | 0.0151 |
| HMPEPLTARETEVLRLLSGGYSNREIAAAMFLAEGTIKNHVSAVLLKLGVRDRTRAVLRGLELGLIQ | -2.27 |
| HMPEPPRVGETLAALRQDRALSLDELSRQAGVSKSMLSQIERNQANPTVAVVWRLANALGVPMAELLGA | -0.272 |
| HMPGDIRKAAILLMSLPREQAAQVLARLDPKQVEAVTIEIARLGTVTPDEQEQALKEFSQANPA | 0.0238 |
| HMPGIDDAAVEHAERVLAQHIGPMARLLVRRTVPRAANLFDLHRRLGALIPESEPRTAFLSAVVT | 0.0954 |
| HMPGLSQAEAQSLLIAYLAQQGRTLELIPLGQSGDVWRFSGRESDGTVVSFFMVSRTDGTISEVPVPP | -1.06 |
| HMPGRLSRREVEVIELTARGLPAAEMAVRLGISANTIEFHRRRIMQKLGVANAAEMVRRATELGW | -2.28 |
| HMPGRVITVMVNGKRVDLPFREEPYIFVDLFRYMDFDVERARGRIQLAINGKKAGYTDIIREGDSIEI | -2.54 |
| HMPGTAAQARQLKAWLKENGEKPGAALPALQKAQEIYGYVPREVQQLIADALHKPLTEIYGVSTFYSQFNL | -0.566 |
| HMPGTPADQVAELQTKVGTETKTGDMITQDDVKLLQTALDPLAKMNDRIQAAKILESKGIVTSDGNLRT | 0.0421 |
| HMPIGENIKRLRIMHGLSQKELAQIAGVSDKAVSTWENGTKEPRMGAVQKITGYFGLKKSNLIEDNGL | -0.0452 |
| HMPIMDSDDKYEALGIPQEWIAVVKKAGYQTVEALKAVENPNKLHQELSVMNKKEKLGLAGLTPEMVKAWL | 0.321 |
| HMPINPKVKQIYDTLKDGGADVGSEKEFNDYFFAKGKDGYNNRKEVFNTLREGGADAGKSYEEFAGWLGL | 0.445 |
| HMPIPIESEISRSPGQSIYAFVQQHYGRSGRSPADMRALVGLILRLNRQIRTPLLIPFGLVVVRPT | 0.335 |
| HMPIRVGDAFESLAGVFPDEYNKALRKSTKKPVFFVPVKVEAGSGALRQKGKITFIVKDGRIDAIQIAL | -1.41 |
| HMPISQGATVKHNANMRKGASTKYKVTGVLQEGEEVKILSQSNGWYKIQNSDNEKGWTYNTHINASDK | 0.0826 |
| HMPKHFIDFSEGEVVSITDGPFKGFDGAISEIDNQKGKVKVMVSMFGRDTSVELDALQVKKV | 0.00647 |
| HMPKITTIHIDPEKISKVIGPGGKTVKKIIEETGAKIDIEDTGKIFIAAVNTEAANKAIDMINGIVA | 0.101 |
| HMPKLPIIYVLDGHVNKNALTTSGKNKVWIEHELKKHHINSIKDVLIAMTDTEGKFYYQLYD | -1.77 |
| HMPKLSNNHMAVWQAIRSRTAKGEPSTRAVIRDDLKAAGMDTSKHFSRWLTKLIDLGMVVKDGENLSIR | -0.395 |
| HMPKMISPAQIKAIGAKTNNIAKASGVEQAQVYQSAVAHLGINNKSTKELTSQEASKVIEYLSTL | 0.103 |
| HMPKPMKATKITLQQEPRIRVDFTYDPLKVQQIKTISGARWSKSLKAWHIPYTKEAFNQLKKLFPNVEIEV | -1.44 |
| HMPKSVRQSFVYSPMYRDVEYLADFLRNNNKDDSSVSASGDKLVYYGTADEIARVKSVLKGVDV | -0.00252 |
| HMPLIPIAIELARHALPSLIGAIAGDKSEKVAKEVVDAALKTTGKTTPDEALHALQADPQLAHEYRLSLL | 0.982 |

| Sequence | soluble fraction (log2) |
| --- | --- |
| HMPLKLIDVYLGRHGKKRYDVFKETGLSQQTLASANGKPAAALTGRILQAIGRTVGETPGRVLDEMLMIEQ | -1.02 |
| HMPLLADLPNLLRKVLKQHPGRVVDVDLERGRQGREIYHVRVLQENGQVRGLFVDASTGELVS | -0.938 |
| HMPLQLPEPMAELARNGETARLAEALKQGLDIDLRDGKGNTLLMIAAYQGRAETVAMLLKAGA | -2.29 |
| HMPLSLESVSEGGRNDTAARIAGYLIAKGLNVDFARFFLQSWNTKNKPPLDDTEIDTIVNSIMKTHERKNQ | -0.858 |
| HMPLTPATADAGRFVKQDRKYIRLLAKRYNFTHGDIKSEIDRVSAVLSSNGIDRVPLFLYKEYLEQYLAG | -2.04 |
| HMPLTRSDVKRIQLWLMAHGYDIGSPDGVFGDKSNRAANAFLSQQGRSLETVTLGKLYDILEAN | -2.58 |
| HMPMINLYQRLNLPPTASRAEIEAALAQYRSELSTAEIRGVQEWLLVNEVRHRYDAKLRQEQPSFFI | -1.08 |
| HMPMTLGENIARLRTQKDWSQGDLADALGISRQSISKWETDTSIPELEKLIKLSELFGVTLDQLVRGE | -0.406 |
| HMPNILLSVKDASVAISVSSKMVRLLIASGRLKAVNLGKRMTRISLQELTDFAQRQGGNVVLP | -0.123 |
| HMPNLAAAIGARVTIRLREASGGFRDIVGTLQRFGDGVNELLNSKGQIISFSEDEIAIWREIK | -3.33 |
| HMPNQIKQIAVNTASVSDIATIPGISFDFAKEIWEFRILRQKIGSLSELQKIEGMTASKYALIELYLHI | -3.71 |
| HMPNSIKAPAYLHNIARIYDHVLIDVEKASSAYEKLIKKYPNHPLSINAKLYLENAFNRSDEELLNMIKEN | -0.892 |
| HMPNYVEMLRLHEAGFSLRQIAKLVSSGRNTVTRTVNIAQEKELSYEEIAQWSSEELENMFKPD | -2.25 |
| HMPPDIKVVGVTVASDPRASFAMLSSNGKTLSYRVNDLIEGTEYHLIKVEAAAITIATAGGQSTQIAF | -2.54 |
| HMPPFTYHLERAKRKTVGFIVDERGVTVRAPRWVSVSEIEKMLQTKEAWIQKKLTEFHNWQKE | -3.39 |
| HMPPHGHIVELLPEQDFGRIETGDGRLVYFHRNSVLDGDFAQLAVGDAVRFAEEMGERGPQASSVHVE | 0.0508 |
| HMPPLKYLKVKSYLEAVAVKAESAMRMPTVRELMNQFNVSLATVNRALSELENDGVIVRRQGSGIVAAG | -0.00508 |
| HMPPSGPWEQDPPSEAQLKPFNEAMKRTADIDVDLYEKAKKALNDGTITKGNIYDWINREDSPWVLQDGS | 0.241 |
| HMPPSQRVNRILSLAGITSRRKADEYILEGRVTVNGEVLKEPGAKAVWGTDDIRVDGKPIPALS | 0.0835 |
| HMPPSVAETLKRLRRHKSLSLEELAQMSGVSRSMLSQIERDATNPTVATLWRITAALGVSIDEVLGV | -2.43 |
| HMPPTEQVYRSHVPPQYDGFPIEKYFTTRFSYQDVEEWSRQILAGKIEVNGKTALIGQILSASDLTVTRA | -0.895 |
| HMPQETPIPKSEIQSYDEIWLEPISTDNILRNELRGWYHVKDRWVENEFGNRFYLDTYASKWLAFPS | -0.333 |
| HMPQKIVIQKGVVIKKRERSDAWQIYITVKGKKPIRKSANTDNVEKAKQMALTLFAEKNYKVENNLPIQ | -1.17 |
| HMPQLSNEEQKIVDALEGSDGKQINLITVETNIPMARLMSVLFEMEMRGIVKSLNGARYKLN | -1.3 |
| HMPQTDDSEPLGKYGRMRLAYLKNQRPVLYNQMLLNGTLWPHLQDVQKTAYEWLERTMTTLLDK | 0.0585 |
| HMPRDQQENIYLLEKGKRLYEEHLGDQRQIIGHRIMIFERILESQDHAQIRRAQSEFAEFLSHYDG | -0.8 |

| Sequence | soluble fraction (log2) |
| --- | --- |
| HMPRDYYAVLEVSVSSTPVQIRQAYQRLARRYSPDVNFLDRDTEALFEEIVEAYRVLSNPTARTLYDRG | -4.52 |
| HMPREQQENVYLLEKAKRLYEEYLGDQRQTIGHALAQFERVLESQDPAAIRRAQKEFGEFLERYDG | -0.0743 |
| HMPREVKLPPDLLDALEASPEAKAFFLQLSYTHQKEYAQWIEEAKQEATRQRRLEKTVQMLLEGRRT | -1.27 |
| HMPRFDINFKVGEVVTIKGGSFDGQQGEISEIDHEHGKIKVMLEVLGRLTPVEVEHTEIEKI | -0.269 |
| HMPRKLDDQLQEQIRYLKSNYPRMSAAGIFRQLQDNGSIKHGDVSESTINRYVNLLSIEMKTTT | -0.395 |
| HMPRNMTFAIRGEYITLDALLKAVGAADSGAQAKHRIAEGEVTVDGVVETRKTRKLRGGETVVVDDLAVVL | -0.734 |
| HMPRQREVPDVSGWTEQHAKVYLEALGYRVKVIYLEVSSFDKGLVQETSPAKGSKVEEGDTIDLRVSNQE | -2.64 |
| HMPRSLGADLRAIRKGRRLTLTDMAEALDRSVGWVSQVERDISTPSISDLRRMAEILDVPVSLLFG | -3.17 |
| HMPSARELLATNIVRLRKEKGWSQEDLALEAGLHRTFVAHVERHARNISLDNIERLANALQVNVHILLL | -3.81 |
| HMPSEDELAERLRGAIRQGDILNEGRMPPERALAEHFGVSRARLRLALGLLQEDGTIYRRHGQGTFAT | -0.308 |
| HMPSIGKNILYYRKKRNMTIDELSKKSGVSKSMLSQVEQEKTNPTVVTVWKIARSLDVSINQLLQT | -2.83 |
| HMPSKKHARWIELEARKFMADNEDAVSDLHELRTRAANFAALKTSTLPVDQHRAIVAGFVARVNELGRRI | -1.02 |
| HMPSLSPDETVVVDALRQQNDMQINMISVKTNLPIARLSAILFEMELKGVLKPLAGGVYHLL | -2.3 |
| HMPSPEMLKETEKRKAEEIYRSQINLFIDDYHRLKGQYPLLEDIIDNKKDSIPIEILREISISILKNYFE | -0.802 |
| HMPSPEVELLEDLLSKTDEAEVEAAFHENQALVNDEFKAMLGSLIQELSKTQEADPEIIARIRFIQKLT | -0.128 |
| HMPSREDFAYDSIKEAILSGELLPNQKISLSDLANKLGISIIPVNSAVGRLVAEGLVRQDPHHSPYVV | 0.481 |
| HMPSRPIQVASFSKEDNAKRAAEALAKIGVTATPQKSEKAGKAVWGVVVTGDDAMLQKIKDAGFADAYFL | 0.0515 |
| HMPSTKDGIKEFLSSGAMKGIGRKTASAIVSRFGIDTLKIIEQEPQRLTEVSGIGKKTAQRIAEAFGKH | -0.26 |
| HMPSTVRVPDVAETSLSEAKKTIEESGLEVGAIHKVNNDTVKKNHVIKTSPTIGSAKKEGSAIDIYVSKG | -0.0483 |
| HMPSTVSVPDVAGSSLSEAKTTIKSSGLKVGTVHKVSSDTVESGYVIKTSPTAGSSKKEGSSIDIYVSKG | ≥ 1.04 |
| HMPTANFPAMAEALKKQYGPPTGEEETSWTHRLGGVFDIKIQSWNTPQGEMVLRSRGAAMDAGML | 0.385 |
| HMPTEPTARELEVTTLLAQGLSNREIAGALFISEHTVRNHLGHVFSKLGVSSRTQAVVRAGQLGWLR | -2.54 |
| HMPTKSDLLQWIKDRASKMGGAFTNSGAYALADAGVDGPRALSSEINKLLTYVNWERSVEADDVIRL | -0.455 |
| HMPTLTPFDVARIENAINPRLNLETAAKLKPWIAAGYTAQETADGTGFSPDTVKKYAAIFRK | -0.0357 |
| HMPTQTEELRRRIVADVNAGEPGAKLGSERELAERYGTSRSSLRQVLAALQEAGLIDRVIGRSGGIFISH | -0.0502 |
